Patent US20140010756A1 (KAGOSHIMA UNIVERSITY, published 2014)

Target: T1, human folate receptor β (FRβ) (human, UniProt P14207 23-230)
T1 construct: Expressed on mouse B300-19 cells from cDNA cloned from human rheumatoid synovial membrane; also called human FRβ
Experiment: hybridoma antibodies selected by reactivity with FRβ-expressing cells (human FRβ on mouse B300-19 cells); reactivity analysed by flow cytometry

T1 sequence (P14207 23-230 S117T limits assumed): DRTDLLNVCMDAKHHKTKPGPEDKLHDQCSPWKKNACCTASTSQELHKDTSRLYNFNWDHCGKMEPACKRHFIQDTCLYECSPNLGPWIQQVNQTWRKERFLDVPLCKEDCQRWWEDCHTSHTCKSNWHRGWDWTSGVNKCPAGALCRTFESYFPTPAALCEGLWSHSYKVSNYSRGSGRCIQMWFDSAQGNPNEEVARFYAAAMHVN

B1: anti-human FRβ mouse monoclonal antibody 36b (antibody, mouse IgG2a, V domains shown)
VH: QVQLQQSGAELMKPGASLKISCKATGYTFSSYWIEWVKQRPGHGLQWIGEILPGSGSSNYNEKFKGKATFTADTSSNTAYMQLSSLTSEDSAVYYCARRGSSGSYFAMDYWGQGTSVTVSS
VL: DIQMTQSSSSFSVSLGDRVTITCKASEDIYNRLAWYQQKPGNAPRLLISGATSLETGVPLRFSGSGSGKDYTLSITSLQTEDIATYYCQQYWSTPWTFGGGTKLEIKK
notes: also called Clone 36b
- binding result: binds
